Data taken from article PMC5507773.

Biological target: LIMD1 (UniProt Q9UGP4)
Experiment: co-IP of Xpr-LIMD1 with EYFP-AGO2
Settings: reference: wild type; sites S387

binding against the reference: weaker
Substance: AGO2 (from UniProt Q9UKV8) S387A
